How the values were obtained:
[1] = molecular target: T1, GST-hnRNPA1 (UniProt P09651 1-372); test: EMSA; 50 mM KCl; bound at 1:1 ratio; EMSA: 50 mM Tris-HCl pH 7.4, 50 mM KCl, 1 mM EDTA, 1 mM Na3VO4, 5 mM NaF, 1 mM DTT, 8% glycerol, 25 C, 30 nM RNA; ITC: 10 mM KPi, 50 mM KCl, 25 C, 8 uM UP1; conditions: protein: recombinant; tags: GST (N-terminal, pGEX4T1); label: Cy5.5 5'; rG4
[2] = molecular target: T1, GST-hnRNPA1; test: EMSA; 10-fold molar excess of protein; EMSA: 50 mM Tris-HCl pH 7.4, 50 mM KCl, 1 mM EDTA, 1 mM Na3VO4, 5 mM NaF, 1 mM DTT, 8% glycerol, 25 C, 30 nM RNA; ITC: 10 mM KPi, 50 mM KCl, 25 C, 8 uM UP1; conditions: protein: recombinant; tags: GST (N-terminal, pGEX4T1); unable to form rG4
[3] = molecular target: UP1 (UniProt P09651 1-196); test: ITC; 50 mM KCl; one-site fit, Kd not in material; EMSA: 50 mM Tris-HCl pH 7.4, 50 mM KCl, 1 mM EDTA, 1 mM Na3VO4, 5 mM NaF, 1 mM DTT, 8% glycerol, 25 C, 30 nM RNA; ITC: 10 mM KPi, 50 mM KCl, 25 C, 8 uM UP1; conditions: protein: recombinant; tags: none (GST removed by PreScission); rG4, two stacked G-tetrads
UP1, sequence (P09651 1-196): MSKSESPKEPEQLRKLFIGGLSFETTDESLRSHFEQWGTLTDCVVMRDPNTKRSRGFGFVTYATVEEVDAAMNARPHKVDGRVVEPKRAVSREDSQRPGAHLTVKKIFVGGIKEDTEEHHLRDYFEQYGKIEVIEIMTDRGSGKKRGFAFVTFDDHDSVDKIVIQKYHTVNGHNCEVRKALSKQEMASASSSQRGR

T1 sequence (P09651 whole entry): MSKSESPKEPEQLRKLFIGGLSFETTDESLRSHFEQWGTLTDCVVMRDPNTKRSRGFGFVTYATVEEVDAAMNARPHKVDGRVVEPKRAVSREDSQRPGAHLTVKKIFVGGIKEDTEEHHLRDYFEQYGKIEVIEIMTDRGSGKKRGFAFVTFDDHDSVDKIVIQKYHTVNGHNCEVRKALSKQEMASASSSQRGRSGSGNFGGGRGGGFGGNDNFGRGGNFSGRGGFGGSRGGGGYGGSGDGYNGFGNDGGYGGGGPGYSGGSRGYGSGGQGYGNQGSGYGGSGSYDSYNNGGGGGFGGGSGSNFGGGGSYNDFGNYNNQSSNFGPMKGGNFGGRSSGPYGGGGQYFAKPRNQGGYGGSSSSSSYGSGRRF

GCAGCGGCGGCGGCAGUGGCGGCGGCGAAGGUGGCGGCGGC (structured_RNA) [41-mer 5'UTR (utr-c + utr-z)]
binding result [1]: binds

GCAGCGCCAGCCGCAGUCGCGUCCGCGAACGUAGCCGCCGC (ssRNA) [41-mer 5'UTRmut]
binding result [2]: no binding

GGUGGCGGCGG (structured_RNA) [utr-c]
binding result [3]: binds
